Assay results as given in PMC9958131 (Nature Communications, 2023).

B1: Interferon alpha-21 (protein, UniProt P01568 24-189, looked up)
Interferon alpha-21: CDLPQTHSLGNRRALILLAQMGRISPFSCLKDRHDFGFPQEEFDGNQFQKAQAISVLHEMIQQTFNLFSTKDSSATWEQSLLEKFSTELNQQLNDLEACVIQEVGVEETPLMNVDSILAVKKYFQRITLYLTEKKYSPCAWEVVRAEIMRSFSLSKIFQERLRRKE
B2: Kininogen-1 (protein, UniProt P01042 19-644, looked up)
Kininogen-1: QESQSEEIDCNDKDLFKAVDAALKKYNSQNQSNNQFVLYRITEATKTVGSDTFYSFKYEIKEGDCPVQSGKTWQDCEYKDAAKAATGECTATVGKRSSTKFSVATQTCQITPAEGPVVTAQYDCLGCVHPISTQSPDLEPILRHGIQYFNNNTQHSSLFMLNEVKRAQRQVVAGLNFRITYSIVQTNCSKENFLFLTPDCKSLWNGDTGECTDNAYIDIQLRIASFSQNCDIYPGKDFVQPPTKICVGCPRDIPTNSPELEETLTHTITKLNAENNATFYFKIDNVKKARVQVVAGKKYFIDFVARETTCSKESNEELTESCETKKLGQSLDCNAEVYVVPWEKKIYPTVNCQPLGMISLMKRPPGFSPFRSSRIGEIKEETTVSPPHTSMAPAQDEERDSGKEQGHTRRHDWGHEKQRKHNLGHGHKHERDQGHGHQRGHGLGHGHEQQHGLGHGHKFKLDDDLEHQGGHVLDHGHKHKHGHGHGKHKNKGKKNGKHNGWKTEHLASSSEDSTTPSAQTQEKTEGPTPIPSLAKPGVTVTFSDFQDSDLIATMMPPISPAPIQSDDDWIPDIQIDPNGLSFNPISDFPDTTSPKCPGRPWKSVSEINPTTQMKESYYFDLTDGLS
B3: Keratin, type II cuticular Hb6 (protein, UniProt O43790 1-486, looked up)
Keratin, type II cuticular Hb6: MTCGSYCGGRAFSCISACGPRPGRCCITAAPYRGISCYRGLTGGFGSHSVCGGFRAGSCGRSFGYRSGGVCGPSPPCITTVSVNESLLTPLNLEIDPNAQCVKQEEKEQIKSLNSRFAAFIDKVRFLEQQNKLLETKLQFYQNRECCQSNLEPLFEGYIETLRREAECVEADSGRLASELNHVQEVLEGYKKKYEEEVSLRATAENEFVALKKDVDCAYLRKSDLEANVEALIQEIDFLRRLYEEEIRVLQSHISDTSVVVKLDNSRDLNMDCIIAEIKAQYDDIVTRSRAEAESWYRSKCEEMKATVIRHGETLRRTKEEINELNRMIQRLTAEVENAKCQNSKLEAAVAQSEQQGEAALSDARCKLAELEGALQKAKQDMACLIREYQEVMNSKLGLDIEIATYRRLLEGEEQRLCEGVGSVNVCVSSSRGGVVCGDLCASTTAPVVSTRVSSVPSNSNVVVGTTNACAPSARVGVCGGSCKRC
B4: Complement factor H-related protein 5 (protein, UniProt Q9BXR6 19-569, looked up)
Complement factor H-related …: EGTLCDFPKIHHGFLYDEEDYNPFSQVPTGEVFYYSCEYNFVSPSKSFWTRITCTEEGWSPTPKCLRMCSFPFVKNGHSESSGLIHLEGDTVQIICNTGYSLQNNEKNISCVERGWSTPPICSFTKGECHVPILEANVDAQPKKESYKVGDVLKFSCRKNLIRVGSDSVQCYQFGWSPNFPTCKGQVRSCGPPPQLSNGEVKEIRKEEYGHNEVVEYDCNPNFIINGPKKIQCVDGEWTTLPTCVEQVKTCGYIPELEYGYVQPSVPPYQHGVSVEVNCRNEYAMIGNNMITCINGIWTELPMCVATHQLKRCKIAGVNIKTLLKLSGKEFNHNSRIRYRCSDIFRYRHSVCINGKWNPEVDCTEKREQFCPPPPQIPNAQNMTTTVNYQDGEKVAVLCKENYLLPEAKEIVCKDGRWQSLPRCVESTAYCGPPPSINNGDTTSFPLSVYPPGSTVTYRCQSFYKLQGSVTVTCRNKQWSEPPRCLDPCVVSEENMNKNNIQLKWRNDGKLYAKTGDAVEFQCKFPHKAMISSPPFRAICQEGKFEYPICE
B5: Carboxypeptidase N subunit 2 (protein, UniProt P22792 22-545, looked up)
Carboxypeptidase N subunit 2: CPMGCDCFVQEVFCSDEELATVPLDIPPYTKNIIFVETSFTTLETRAFGSNPNLTKVVFLNTQLCQFRPDAFGGLPRLEDLEVTGSSFLNLSTNIFSNLTSLGKLTLNFNMLEALPEGLFQHLAALESLHLQGNQLQALPRRLFQPLTHLKTLNLAQNLLAQLPEELFHPLTSLQTLKLSNNALSGLPQGVFGKLGSLQELFLDSNNISELPPQVFSQLFCLERLWLQRNAITHLPLSIFASLGNLTFLSLQWNMLRVLPAGLFAHTPCLVGLSLTHNQLETVAEGTFAHLSNLRSLMLSYNAITHLPAGIFRDLEELVKLYLGSNNLTALHPALFQNLSKLELLSLSKNQLTTLPEGIFDTNYNLFNLALHGNPWQCDCHLAYLFNWLQQYTDRLLNIQTYCAGPAYLKGQVVPALNEKQLVCPVTRDHLGFQVTWPDESKAGGSWDLAVQERAARSQCTYSNPEGTVVLACDQAQCRWLNVQLSPQQGSLGLQYNASQEWDLRSSCGSLRLTVSIEARAAGP
B6: Keratin, type II cuticular Hb5 (protein, UniProt P78386 1-507, looked up)
Keratin, type II cuticular Hb5: MSCRSYRISSGCGVTRNFSSCSAVAPKTGNRCCISAAPYRGVSCYRGLTGFGSRSLCNLGSCGPRIAVGGFRAGSCGRSFGYRSGGVCGPSPPCITTVSVNESLLTPLNLEIDPNAQCVKQEEKEQIKSLNSRFAAFIDKVRFLEQQNKLLETKWQFYQNQRCCESNLEPLFSGYIETLRREAECVEADSGRLASELNHVQEVLEGYKKKYEEEVALRATAENEFVVLKKDVDCAYLRKSDLEANVEALVEESSFLRRLYEEEIRVLQAHISDTSVIVKMDNSRDLNMDCIIAEIKAQYDDVASRSRAEAESWYRSKCEEMKATVIRHGETLRRTKEEINELNRMIQRLTAEIENAKCQRAKLEAAVAEAEQQGEAALSDARCKLAELEGALQKAKQDMACLLKEYQEVMNSKLGLDIEIATYRRLLEGEEHRLCEGVGSVNVCVSSSRGGVSCGGLSYSTTPGRQITSGPSAIGGSITVVAPDSCAPCQPRSSSFSCGSSRSVRFA
B7: Angiotensinogen (protein, UniProt P01019 25-476, looked up)
Angiotensinogen: DRVYIHPFHLVIHNESTCEQLAKANAGKPKDPTFIPAPIQAKTSPVDEKALQDQLVLVAAKLDTEDKLRAAMVGMLANFLGFRIYGMHSELWGVVHGATVLSPTAVFGTLASLYLGALDHTADRLQAILGVPWKDKNCTSRLDAHKVLSALQAVQGLLVAQGRADSQAQLLLSTVVGVFTAPGLHLKQPFVQGLALYTPVVLPRSLDFTELDVAAEKIDRFMQAVTGWKTGCSLMGASVDSTLAFNTYVHFQGKMKGFSLLAEPQEFWVDNSTSVSVPMLSGMGTFQHWSDIQDNFSVTQVPFTESACLLLIQPHYASDLDKVEGLTFQQNSLNWMKKLSPRTIHLTMPQLVLQGSYDLQDLLAQAELPAILHTELNLQKLSNDRIRVGEVLNSIFFELEADEREPTESTQQLNKPEVLEVTLNRPFLFAVYDQSATALHFLGRVANPLSTA
B8: Galectin-3-binding protein (protein, UniProt Q08380 19-585, looked up)
Galectin-3-binding protein: VNDGDMRLADGGATNQGRVEIFYRGQWGTVCDNLWDLTDASVVCRALGFENATQALGRAAFGQGSGPIMLDEVQCTGTEASLADCKSLGWLKSNCRHERDAGVVCTNETRSTHTLDLSRELSEALGQIFDSQRGCDLSISVNVQGEDALGFCGHTVILTANLEAQALWKEPGSNVTMSVDAECVPMVRDLLRYFYSRRIDITLSSVKCFHKLASAYGARQLQGYCASLFAILLPQDPSFQMPLDLYAYAVATGDALLEKLCLQFLAWNFEALTQAEAWPSVPTDLLQLLLPRSDLAVPSELALLKAVDTWSWGERASHEEVEGLVEKIRFPMMLPEELFELQFNLSLYWSHEALFQKKTLQALEFHTVPFQLLARYKGLNLTEDTYKPRIYTSPTWSAFVTDSSWSARKSQLVYQSRRGPLVKYSSDYFQAPSDYRYYPYQSFQTPQHPSFLFQDKRVSWSLVYLPTIQSCWNYGFSCSSDELPVLGLTKSGGSDRTIAYENKALMLCEGLFVADVTDFEGWKAAIPSALDTNSSKSTSSFPCPAGHFNGFRTVIRPFYLTNSSGVD
B9: Tubulin beta-4A chain (protein, UniProt P04350 1-444, looked up)
Tubulin beta-4A chain: MREIVHLQAGQCGNQIGAKFWEVISDEHGIDPTGTYHGDSDLQLERINVYYNEATGGNYVPRAVLVDLEPGTMDSVRSGPFGQIFRPDNFVFGQSGAGNNWAKGHYTEGAELVDAVLDVVRKEAESCDCLQGFQLTHSLGGGTGSGMGTLLISKIREEFPDRIMNTFSVVPSPKVSDTVVEPYNATLSVHQLVENTDETYCIDNEALYDICFRTLKLTTPTYGDLNHLVSATMSGVTTCLRFPGQLNADLRKLAVNMVPFPRLHFFMPGFAPLTSRGSQQYRALTVPELTQQMFDAKNMMAACDPRHGRYLTVAAVFRGRMSMKEVDEQMLSVQSKNSSYFVEWIPNNVKTAVCDIPPRGLKMAATFIGNSTAIQELFKRISEQFTAMFRRKAFLHWYTGEGMDEMEFTEAESNMNDLVSEYQQYQDATAEEGEFEEEAEEEVA
B10: Fibrinogen a: α chain of human fibrinogen (Cayman Chemical), RA autoantigen; native or citrullinated by PAD2 or PAD4 (protein)
chain: MFSMRIVCLVLSVVGTAWTADSGEGDFLAEGGGVRGPRVVERHQSACKDSDWPFCSDEDWNYKCPSGCRMKGLIDEVNQDFTNRINKLKNSLFEYQKNNKDSHSLTTNIMEILRGDFSSANNRDNTYNRVSEDLRSRIEVLKRKVIEKVQHIQLLQKNVRAQLVDMKRLEVDIDIKIRSCRGSCSRALAREVDLKDYEDQQKQLEQVIAKDLLPSRDRQHLPLIKMKPVPDLVPGNFKSQLQKVPPEWKALTDMPQMRMELERPGGNEITRGGSTSYGTGSETESPRNPSSAGSWNSGSSGPGSTGNRNPGSSGTGGTATWKPGSSGPGSTGSWNSGSSGTGSTGNQNPGSPRPGSTGTWNPGSSERGSAGHWTSESSVSGSTGQWHSESGSFRPDSPGSGNARPNNPDWGTFEEVSGNVSPGTRREYHTEKLVTSKGDKELRTGKEKVTSGSTTTTRRSCSKTVTKTVIGPDGHKEVTKEVVTSEDGSDCPEAMDLGTL

Legend:
[1] = system: recombinant human PAD2 and PAD4; experiment: Citrullination site mapping by trypsin digestion and mass spectrometry; protein-level modifications over native, PAD2- and PAD4-citrullinated samples combined; format: biochemical; settings: trypsin digest, Sequest HT search; co-identified proteins in the fibrinogen and vimentin samples (native, PAD2-cit, PAD4-cit); not split by sample or enzyme
From the text: (§1) Description: Raw mass spectrometry data for proteolytic mapping of fibrinogen, vimentin, and hnRNP A2/B1 by cathepsins B, S, and H (sheets 1-6); citrullination site mapping of fibrinogen and vimentin by trypsin digestion (sheets 7-8); and the natural antigen processing assay with native, PAD2-citrullinated (PAD2-cit), and PAD4-citrullinated (PAD4-cit) fibrinogen (sheets 9-11).

[2] = system: PAD2 and PAD4; experiment: Citrullination site mapping of fibrinogen and vimentin by trypsin digestion and mass spectrometry (protein-level sheet, one search over native, PAD2-cit and PAD4-cit samples); format: biochemical, human; settings: modified residues found per protein; Deamidated [R..] = deamidated (citrullinated) arginine positions; trypsin digest, Sequest HT; not split by sample (native, PAD2-citrullinated, PAD4-citrullinated fibrinogen and vimentin)
From the text: as §1

Row | Molecule | Modifications (Deamidated [R...] = citrullinated arginine positions found) [1] | Modifications [2]
1 | B1 | Deamidated [R56] | 
2 | B2 | Deamidated [R269; R389; R392] | 
3 | B3 | Deamidated [R125] | 
4 | B4 | Deamidated [R69] | 
5 | B5 | Deamidated [R89; R449] | 
6 | B6 | Deamidated [R142] | 
7 | B7 | Deamidated [R237] | 
8 | B8 | Deamidated [R63; R426; R435; R436; R570] | 
9 | B9 | Deamidated [R2] | 
10 | B10 |  | Deamidated [R42; R84; R114; R123; R129; R160; R216; R218; R258; R263; R271; R287; R308; R510; R512; R547; R573; R591]
